The source of these data is US20120184713A1, “Compositions and Methods for Modulation of Bone Density and Biomineralization” (priority 2011, published 2012).

This data set has as its system OPN-ASARM peptide. Briefly: Kinase assays of FAM20C mutant proteins. Format: biochemical, human. As to conditions: recombinant mouse FAM20C:V5 mutants; for the mutants OPN-ASARM peptide (1) as substrate, FIG. 8f. How it is done:
Site-specific mutagenesis was performed by PCR essentially as described^26, by using primers […] and […] (SEQ ID NO: 25) (FAM20C^GG), […] (SEQ ID NO: 26) and […] (FAM20C^D453G) (SEQ ID NO: 27), […] (SEQ ID NO: 28) and […] (FAM20C^G374R) (SEQ ID NO: 29), […] and […] (FAM20C^G374E) (SEQ ID NO: 30), […] (SEQ ID NO: 31) and […] (FAM20C^E383R) (SEQ ID NO: 32), […] (SEQ ID NO: 33) and […] (FAM20C^R544W) (SEQ ID NO: 34), […] (SEQ ID NO: 35) and […] (FAM20C^1241N)(SEQ ID NO: 36), […] (SEQ ID NO: 37) and […] (FAM20C^G261R) (SEQ ID NO: 38), […] (SEQ ID NO: 39) and […] (FAM20C^D446N) (SEQ ID NO:40). All mutations were confirmed by DNA sequencing.
FAM20C kinase assay with peptides substrates were performed in 10 μl reactions, with 500 μM ATP, including 3 μCi (0.05 μM) of [gamma-^32P]ATP (6000 Ci/mmol, PerkinElmer), 50 mM Tris (pH 7.0), 10 mM MnCl2, 0.1% BSA, purified FAM20C:V5 and peptides. Casein Kinase I (500 units, NEB) was used as a control kinase. mutant versions (5 ng, […]), and peptides (2.5 μg, 1 nmol as a standard condition. 250 ng, […] in FAM20C mutants). Reactions were stopped by adding 1.5 μl 0.1N—HCl, and one half of the reaction volume was pipetted on to P81 phospho-cellulose filter paper^27. The filter papers were washed with 0.5% phosphoric acid and subjected to liquid scintillation counting.

B1: D453G: FAM20C:V5 with a mutation in a conserved Asp residue (protein, UniProt Q5MJS3 88-579, looked up, variant D453G)
Extracellular …: DFSSDPASNLTSHSLEKLPSAAEPVDHAPRGQEPRSPPPRDPAHRPLLRDPGPRPRVPPPGPSGDGSLLAKLFEHPLYQGAVPPLTEDDVLFNVNSDIRFNPKAAENPDWPHEGAEGAEFLPTGEAAVNLYPNWLKFHIGINRYELYSRHNPAIDALLRDLGSQKITSVAMKSGGTQLKLIMTFQNYGQALFKPMKQTREQETPPDFFYFSDYERHNAEIAAFHLDRILDFRRVPPVAGRMINMTKEIRDVTRDKKLWRTFFVSPANNICFYGECSYYCSTEHALCGRPDQIEGSLAAFLPDLSLAKRKTWRNPWRRSYHKRKKAEWEVDPDYCEEVKQTPPYDSGHRILDIMDMTVFDFLMGNMGRHHYETFEKFGNETFIIHLDNGRGFGKYSHDELSILAPLHQCCRIRRSTYLRLQLLAKEEHKLSLLMAESLQHDKVAPVLYQLHLEALDRRLRIVLQAVRDCVEKDGLSSVVEDDLATEHRASTER
modifications: V5 tag
notes: FAM20C:V5 with a mutation in a conserved Asp residue
As for B1, the “kinase activity of FAM20C mutant isoform” value is given as “abolished catalytic activity”.

B2: G374R: recombinant mouse FAM20C:V5 carrying Raine syndrome patient mutation G374R (protein, UniProt Q5MJS3 88-579, looked up, variant G374R)
Extracellular …: DFSSDPASNLTSHSLEKLPSAAEPVDHAPRGQEPRSPPPRDPAHRPLLRDPGPRPRVPPPGPSGDGSLLAKLFEHPLYQGAVPPLTEDDVLFNVNSDIRFNPKAAENPDWPHEGAEGAEFLPTGEAAVNLYPNWLKFHIGINRYELYSRHNPAIDALLRDLGSQKITSVAMKSGGTQLKLIMTFQNYGQALFKPMKQTREQETPPDFFYFSDYERHNAEIAAFHLDRILDFRRVPPVAGRMINMTKEIRDVTRDKKLWRTFFVSPANNICFYGECSYYCSTEHALCRRPDQIEGSLAAFLPDLSLAKRKTWRNPWRRSYHKRKKAEWEVDPDYCEEVKQTPPYDSGHRILDIMDMTVFDFLMGNMDRHHYETFEKFGNETFIIHLDNGRGFGKYSHDELSILAPLHQCCRIRRSTYLRLQLLAKEEHKLSLLMAESLQHDKVAPVLYQLHLEALDRRLRIVLQAVRDCVEKDGLSSVVEDDLATEHRASTER
modifications: V5 tag
With B2, the “kinase activity of FAM20C mutant isoform” value is reported as “no detectable kinase activity”.

B3: G374E: recombinant mouse FAM20C:V5 carrying Raine syndrome patient mutation G374E (protein, UniProt Q5MJS3 88-579, looked up, variant G374E)
Extracellular …: DFSSDPASNLTSHSLEKLPSAAEPVDHAPRGQEPRSPPPRDPAHRPLLRDPGPRPRVPPPGPSGDGSLLAKLFEHPLYQGAVPPLTEDDVLFNVNSDIRFNPKAAENPDWPHEGAEGAEFLPTGEAAVNLYPNWLKFHIGINRYELYSRHNPAIDALLRDLGSQKITSVAMKSGGTQLKLIMTFQNYGQALFKPMKQTREQETPPDFFYFSDYERHNAEIAAFHLDRILDFRRVPPVAGRMINMTKEIRDVTRDKKLWRTFFVSPANNICFYGECSYYCSTEHALCERPDQIEGSLAAFLPDLSLAKRKTWRNPWRRSYHKRKKAEWEVDPDYCEEVKQTPPYDSGHRILDIMDMTVFDFLMGNMDRHHYETFEKFGNETFIIHLDNGRGFGKYSHDELSILAPLHQCCRIRRSTYLRLQLLAKEEHKLSLLMAESLQHDKVAPVLYQLHLEALDRRLRIVLQAVRDCVEKDGLSSVVEDDLATEHRASTER
modifications: V5 tag
In the case of B3, the “kinase activity of FAM20C mutant isoform” value was “no detectable kinase activity”.

B4: G261R: recombinant mouse FAM20C:V5 carrying Raine syndrome patient mutation G261R (protein, UniProt Q5MJS3 88-579, looked up, variant G261R)
Extracellular …: DFSSDPASNLTSHSLEKLPSAAEPVDHAPRGQEPRSPPPRDPAHRPLLRDPGPRPRVPPPGPSGDGSLLAKLFEHPLYQGAVPPLTEDDVLFNVNSDIRFNPKAAENPDWPHEGAEGAEFLPTGEAAVNLYPNWLKFHIGINRYELYSRHNPAIDALLRDLGSQKITSVAMKSRGTQLKLIMTFQNYGQALFKPMKQTREQETPPDFFYFSDYERHNAEIAAFHLDRILDFRRVPPVAGRMINMTKEIRDVTRDKKLWRTFFVSPANNICFYGECSYYCSTEHALCGRPDQIEGSLAAFLPDLSLAKRKTWRNPWRRSYHKRKKAEWEVDPDYCEEVKQTPPYDSGHRILDIMDMTVFDFLMGNMDRHHYETFEKFGNETFIIHLDNGRGFGKYSHDELSILAPLHQCCRIRRSTYLRLQLLAKEEHKLSLLMAESLQHDKVAPVLYQLHLEALDRRLRIVLQAVRDCVEKDGLSSVVEDDLATEHRASTER
modifications: V5 tag
As for B4, the “kinase activity of FAM20C mutant isoform” value was “diminished kinase activity”.

B5: 1241N: recombinant mouse FAM20C:V5 carrying Raine syndrome patient mutation 1241N (protein, UniProt Q5MJS3 88-579, looked up, variant I241N)
Extracellular …: DFSSDPASNLTSHSLEKLPSAAEPVDHAPRGQEPRSPPPRDPAHRPLLRDPGPRPRVPPPGPSGDGSLLAKLFEHPLYQGAVPPLTEDDVLFNVNSDIRFNPKAAENPDWPHEGAEGAEFLPTGEAAVNLYPNWLKFHIGINRYELYSRHNPANDALLRDLGSQKITSVAMKSGGTQLKLIMTFQNYGQALFKPMKQTREQETPPDFFYFSDYERHNAEIAAFHLDRILDFRRVPPVAGRMINMTKEIRDVTRDKKLWRTFFVSPANNICFYGECSYYCSTEHALCGRPDQIEGSLAAFLPDLSLAKRKTWRNPWRRSYHKRKKAEWEVDPDYCEEVKQTPPYDSGHRILDIMDMTVFDFLMGNMDRHHYETFEKFGNETFIIHLDNGRGFGKYSHDELSILAPLHQCCRIRRSTYLRLQLLAKEEHKLSLLMAESLQHDKVAPVLYQLHLEALDRRLRIVLQAVRDCVEKDGLSSVVEDDLATEHRASTER
modifications: V5 tag
notes: recombinant mouse FAM20C:V5 carrying Raine syndrome patient mutation 1241N
Turning to B5, the “kinase activity of FAM20C mutant isoform” value is listed as “no detectable kinase activity”.

B6: DN473-474GG: FAM20C:V5 with a mutation in a motif predicted to bind metal ion cofactors (protein, UniProt Q5MJS3 88-579, looked up, variant D473G N474G)
Extracellular …: DFSSDPASNLTSHSLEKLPSAAEPVDHAPRGQEPRSPPPRDPAHRPLLRDPGPRPRVPPPGPSGDGSLLAKLFEHPLYQGAVPPLTEDDVLFNVNSDIRFNPKAAENPDWPHEGAEGAEFLPTGEAAVNLYPNWLKFHIGINRYELYSRHNPAIDALLRDLGSQKITSVAMKSGGTQLKLIMTFQNYGQALFKPMKQTREQETPPDFFYFSDYERHNAEIAAFHLDRILDFRRVPPVAGRMINMTKEIRDVTRDKKLWRTFFVSPANNICFYGECSYYCSTEHALCGRPDQIEGSLAAFLPDLSLAKRKTWRNPWRRSYHKRKKAEWEVDPDYCEEVKQTPPYDSGHRILDIMDMTVFDFLMGNMDRHHYETFEKFGNETFIIHLGGGRGFGKYSHDELSILAPLHQCCRIRRSTYLRLQLLAKEEHKLSLLMAESLQHDKVAPVLYQLHLEALDRRLRIVLQAVRDCVEKDGLSSVVEDDLATEHRASTER
modifications: V5 tag
B6: the “kinase activity of FAM20C mutant isoform” value is listed as “abolished catalytic activity”.
